Measurements from patent publication US12534534 (F STAR BETA, dated 2026).
Changes are numbered by the printed parent chain. Names may count otherwise.

B1: FS20-22-49AA/FS30-10-3 (bispecific antibody, human IgG1, kappa, L234A L235A, V domains shown)
VH: EVQLLESGGGLVQPGGSLRLSCAASGFTFSSYDMSWVRQAPGKGLEWVSDIDPTGSKTDYADSVKGRFTISRDNSKNTLYLQMNSLRAEDTAVYYCARDLNVYGFDYWGQGTLVTVSS
VL: EIVLTQSPGTLSLSPGERATLSCRASQSVSSSYLAWYQQKPGQAPRLLIYGASSRATGIPDRFSGSGSGTDFTLTISRLEPEDFAVYYCQQSYSYPVTFGQGTKVEIKR
notes: M97 (Kabat) to N against FS30-10; also called FS30-10-3 in mAb^2 format
B2: FS20-22-49AA/FS30-10-16 (bispecific antibody, human IgG1, kappa, L234A L235A, V domains shown)
VH: B1 VH with N101L
VL: B1 VL
notes: M97 (Kabat) to L against FS30-10; also called FS30-10-16 in mAb^2 format
B3: FS20-22-49AA/FS30-10-12 (bispecific antibody, human IgG1, kappa, L234A L235A, V domains shown)
VH: B1 VH with N101T
VL: B1 VL
notes: M97 (Kabat) to T against FS30-10; also called FS30-10-12 in mAb^2 format
B4: FS20-22-49AA/FS30-5-37 (bispecific antibody, human IgG1, kappa, L234A L235A, V domains shown)
VH: EVQLLESGGGLVQPGGSLRLNCAASGFTFSSYAMSWVRQAPGKGLEWVSAISGSGGSTYYADSVKGRFTISRDNSKNTLYLQMNSLRAEDTAVYYCARSYDKYWGSSIYSGLDYWGQGTLVTVSS
VL: EIVLTQSPGTLSLSPGERATLSCRASQSVSSSYLAWYQQKPGQAPRLLIYGASSRATGIPDRFSGSGSGTDFTLTISRLEPEDFAVYYCQQYYSYYPVTFGQGTKVEIKR
notes: M100D to I and M100H to L against FS30-5; also called FS30-5-37 in mAb^2 format
B5: FS20-22-49AA/FS30-35-14 (bispecific antibody, human IgG1, kappa, L234A L235A, V domains shown)
VH: EVQLLESGGGLVQPGGSLRLSCAASGFTFSAYNIHWVRQAPGKGLEWVSDISPYGGATNYADSVKGRFTISRDNSKNTLYLQMNSLRAEDTAVYYCARNLYELSAYSYGADYWGQGTLVTVSS
VL: B4 VL with S94Y, Y95S, Y96S, V98I
notes: M100F (Kabat) to A against FS30-35; also called FS30-35-14 in mAb^2 format

Tests used:
[1] = molecular target: T1, human CD137 on DO11.10-hCD137 cells (human, UniProt Q07011 24-255); assay: cell-based or functional assay
[2] = molecular target: T1, human CD137 on DO11.10-hCD137 cells; assay: cell-based or functional assay; remark: listed apart in the source
[3] = molecular target: T2, cyno CD137 on DO11.10-cCD137 cells (cynomolgus, UniProt Q07011 24-255 (human entry)); assay: cell-based or functional assay
T2 chain: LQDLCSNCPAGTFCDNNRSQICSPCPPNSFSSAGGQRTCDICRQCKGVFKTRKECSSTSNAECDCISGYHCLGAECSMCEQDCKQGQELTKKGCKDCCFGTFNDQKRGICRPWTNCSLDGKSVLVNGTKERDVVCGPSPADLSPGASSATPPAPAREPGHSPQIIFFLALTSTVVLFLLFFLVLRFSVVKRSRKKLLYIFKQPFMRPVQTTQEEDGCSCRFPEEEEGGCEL

TNFRSF1A-Fc = molecular target: T3, TNFRSF1A-Fc (human, UniProt P19438 30-211, limits assumed); assay: SPR, antigen immobilised on CM5 chip
T3 construct: bought; also called TNFRSF1A (R&D Systems, 372-RI-050/CF); not shown: Fc part of the bought fusion
T3 sequence (looked up): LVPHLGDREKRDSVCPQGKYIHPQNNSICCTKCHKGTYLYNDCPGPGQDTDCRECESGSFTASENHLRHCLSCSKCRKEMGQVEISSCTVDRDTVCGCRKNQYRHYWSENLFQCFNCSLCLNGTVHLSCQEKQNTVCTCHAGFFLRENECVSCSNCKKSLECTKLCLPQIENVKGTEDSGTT

TNFRSF1B-Fc = molecular target: T4, TNFRSF1B-Fc (human, UniProt P20333 23-257); assay: SPR, antigen immobilised on CM5 chip
T4 construct: bought; also called TNFRSF1B (R&D Systems, 726-R2-050); not shown: Fc part of the bought fusion
T4 sequence (looked up): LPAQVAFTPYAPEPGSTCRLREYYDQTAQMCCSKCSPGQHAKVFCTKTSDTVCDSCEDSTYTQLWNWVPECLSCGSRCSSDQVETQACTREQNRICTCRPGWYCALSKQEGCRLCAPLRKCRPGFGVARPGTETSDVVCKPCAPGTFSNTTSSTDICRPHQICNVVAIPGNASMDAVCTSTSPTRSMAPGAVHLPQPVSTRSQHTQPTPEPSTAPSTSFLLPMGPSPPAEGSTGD

GITR-hFc-Avi = molecular target: T5, GITR-hFc-Avi (human, UniProt Q9Y5U5 26-161); assay: SPR, antigen immobilised on CM5 chip
T5 construct: in-house produced; not shown: hFc and Avi part
T5 sequence: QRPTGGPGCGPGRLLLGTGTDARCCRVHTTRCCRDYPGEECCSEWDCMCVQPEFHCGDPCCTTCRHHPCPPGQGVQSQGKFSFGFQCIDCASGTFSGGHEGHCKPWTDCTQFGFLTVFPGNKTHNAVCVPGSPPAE

CD40-mFc = molecular target: T6, CD40-mFc (human, UniProt P25942 21-193); assay: SPR, antigen immobilised on CM5 chip
T6 construct: in-house produced; not shown: mFc part

hCD137-mFc-Avi [4] = molecular target: T7, hCD137-mFc-Avi (human, UniProt Q07011 24-186); assay: ELISA, hCD137-mFc-Avi coated, 100 nM antibody, competitor CD137L-His; normalised to G1/11D4 = 0 and G1/MOR7480.1 = 100; mean of n=2
T7 construct: dimer; also called human CD137-mFc-Avi; human CD137-mFc
Protocol: The following day, plates were washed with PBST (PBS+0.05% Tween20™) and blocked with PBS+1% BSA (Sigma, A3059-500G) for 1 hour at room temperature with agitation. After blocking, the plates were washed again with PBST. A 100 nM dilution of each test antibody was prepared in PBS+1% BSA and added to the CD137-coated plates and incubated for 1 hour at room temperature with agitation. […] The plates were then washed with PBST and then incubated with anti-his secondary antibody (R&D Systems, MAB050H) at a 1 in 1000 dilution in PBS for 1 hour at room temperature with agitation. The plates were then washed with PBST and incubated with TMB detection reagent (Thermo Fisher Scientific, 002023) until the positive control wells turned blue and then the reaction was stopped with the addition of 2N H_2SO_4. Plates were read at 450 nm using the plate reader with Gen5 Software, BioTek. Absorbance values of 630 nm were subtracted from those of 450 nm (Correction). The subtracted absorbance values were plotted vs the log concentration of antibody and the resulting curves were fitted using the log (inhibitor) vs response equation in GraphPad Prism.

hCD137-mFc-Avi [5] = molecular target: T7, hCD137-mFc-Avi; assay: cell-based, 100 nM hCD137-mFc-Avi with 200 nM antibody, competitor human CD137L on DO11.10 cells, GMFI normalised to G1/11D4 = 0 and G1/MOR7480.1 = 100; mean of n=2
Protocol: The cells were washed once in PBS and 100 μl/well of secondary antibody (anti-mouse Fc-488 antibody, Jackson Immuno Research, 115-546-008) diluted 1:1000 in PBS containing 2% BSA was then added and incubated for 30 mins at 4° C. in the dark. The cells were washed once with PBS and resuspended in 100 μl of PBS containing DAPI (Biotium, 40043) at 1 μg/ml. The cells were analysed using a Canto II flow cytometer (BD Bioscience). Dead cells were excluded and the fluorescence in the FITC channel (488 nm/530/30) was measured. […] The data was analysed using a one-way ANOVA test and Tukey's multiple comparisons test using GraphPad Prism.

| Binder | DO11.10-hCD137 T cell activation assay EC50 (nM), crosslinked [1] [nM] | EC50 (nM), mIL-2 release, DO11.10-hCD137 T cell assay, crosslinked (mean of n = 2) [2] [nM] | Emax (mIL-2 pg/ml), DO11.10-hCD137 T cell assay, crosslinked [2] [pg/mL] | EC50 (nM), mIL-2 release, DO11.10-cCD137 T cell assay, crosslinked (mean of n = 2) [3] [nM] | Emax (mIL-2 pg/ml), DO11.10-cCD137 T cell assay, crosslinked [3] [pg/mL] | binding result (TNFRSF1A-Fc) | binding result (TNFRSF1B-Fc) | binding result (GITR-hFc-Avi) | binding result (CD40-mFc) | % CD137 ligand blocking activity (hCD137-mFc-Avi [4]) [%] | % CD137 ligand blocking activity (hCD137-mFc-Avi [5]) [%] |
| --- | --- | --- | --- | --- | --- | --- | --- | --- | --- | --- | --- |
| B1 | 4.8 | 6.1 | 17000 | 5 | 49400 | no binding (tested: 1 µM (protocol of Example 3.1)) | no binding (tested: 1 µM (protocol of Example 3.1)) | no binding (tested: 1 µM (protocol of Example 3.1)) | no binding (tested: 1 µM (protocol of Example 3.1)) | 49.4 | 65 |
| B2 | 3.7 | 4.7 | 16300 | 3.7 | 50100 | no binding (tested: 1 µM (protocol of Example 3.1)) | no binding (tested: 1 µM (protocol of Example 3.1)) | no binding (tested: 1 µM (protocol of Example 3.1)) | no binding (tested: 1 µM (protocol of Example 3.1)) | 48.1 | 76 |
| B3 | 4.5 | 9.5 | 17200 | 5.8 | 46900 | no binding (tested: 1 µM (protocol of Example 3.1)) | no binding (tested: 1 µM (protocol of Example 3.1)) | no binding (tested: 1 µM (protocol of Example 3.1)) | no binding (tested: 1 µM (protocol of Example 3.1)) | 53.8 | 46 |
| B4 | – | 13.4 | 18100 | 7.5 | 45700 | no binding (tested: 1 µM (protocol of Example 3.1)) | no binding (tested: 1 µM (protocol of Example 3.1)) | no binding (tested: 1 µM (protocol of Example 3.1)) | no binding (tested: 1 µM (protocol of Example 3.1)) | 107 | 105 |
| B5 | 6.3 | 5.1 | 19800 | 6.6 | 69700 | no binding (tested: 1 µM (protocol of Example 3.1)) | no binding (tested: 1 µM (protocol of Example 3.1)) | no binding (tested: 1 µM (protocol of Example 3.1)) | no binding (tested: 1 µM (protocol of Example 3.1)) | 6.6 | – |
